Positions count from the first letter of the chain named.
B1: VHH 001 (1B02) (VHH)
VHH: EVQLVESGGGLVQAGGSLSLSCAASGGTLAMYAMSWFRQAPGKDRKFVAAINTSGRYSRYADSVKGRFTISRDNAKNTATLQMNSLEPEDTAVYYCAATDKGNWALAMSYDYWGQGTQVTVSS
notes: Llama single domain antibody; also called 144(#1); VHCDR3 144(#1); not shown: tags: c-myc tag in periplasmic extract (ELISA, FACS); FLAG and His tags in purified VHH (SPR, infection assays)
B2: VHH 023 (4E10) (VHH)
VHH: QVQLVESGGGLVQAGGSLRLSCVASSRTSSTYAMGWFRQGPGKERDFVAIISFGGTFYADSVKGRFTISRDNAKNTVYLQMNSLKPEDTAVYYCAAGRTLSKRADSYASWGQGTQVTVSS
notes: Llama single domain antibody; also called 70(#23); VHCDR3 70(#23); not shown: tags: c-myc tag in periplasmic extract (ELISA, FACS); FLAG and His tags in purified VHH (SPR, infection assays)
B3: VHH 011 (2B06) (VHH)
VHH: EVQLVESGGGLVQAGGSLRLSCAASGRTLSVYGTGWFRQAPGKEREFVAGISGTTGSTLYADSVKGRFTISRDNAKNTVYLQMNSLKSEDTALYYCAAGGRVYITTSSWAYWGQGTQVTVSS
notes: Llama single domain antibody; also called 57(#11); VHCDR3 57(#11); not shown: tags: c-myc tag in periplasmic extract (ELISA, FACS); FLAG and His tags in purified VHH (SPR, infection assays)
B4: VHH 012 (2C07) (VHH)
VHH: QLQLVESGGGLVQAGGSLRLSCVASGRTFSRYAMGWFRQAPGKEREFVAAIAWSTGSTYYANSVKGRFAISGDNAKNTVYLQMNSLKPEDTAVYYCAAETRYCSGFGCLDPRTYGSWGQGTQVTVSS
notes: Llama single domain antibody; also called 41(#12); VHCDR3 41(#12); not shown: tags: c-myc tag in periplasmic extract (ELISA, FACS); FLAG and His tags in purified VHH (SPR, infection assays)
B5: VHH 002 (1B04) (VHH)
VHH: QVQLVESGGGLVQAGGSLRLSCAASGLTFVTYSMGWFRQAPGKEREFVAAHRWSGSAYYAEHADSVEGRFTISRDYAKNMLYLQMNSLKHEDTAVYYCAAGVGSAAQYRYWGRGTQVTVSS
notes: Llama single domain antibody; also called 76(#2); VHCDR3 76(#2); not shown: tags: c-myc tag in periplasmic extract (ELISA, FACS); FLAG and His tags in purified VHH (SPR, infection assays)
B6: VHH 016 (2H11) (VHH)
VHH: EVQLVESGGGLVQAGGSLRLSCAASGRTFAPGSMGWFRQAPGKEREFVAAHRWSGSAYYADYADSVEGRFTISRDYAKNMVYLQMNSLKPGDTAVYYCAAGVGSAAQYTYWGRGTQVTVSS
notes: Llama single domain antibody; also called 77(#16); VHCDR3 77(#16); not shown: tags: c-myc tag in periplasmic extract (ELISA, FACS); FLAG and His tags in purified VHH (SPR, infection assays)
B7: VHH 008 (1H01) (VHH)
VHH: B5 VHH with L27R, V30G, A105E
notes: Llama single domain antibody; also called 78(#8); VHCDR3 78(#8); not shown: tags: c-myc tag in periplasmic extract (ELISA, FACS); FLAG and His tags in purified VHH (SPR, infection assays)
B8: VHH 015 (2G01) (VHH)
VHH: QVQLVESGGGLVQAGDTLRLSCTASGRTFSSYSMGWFRQAPGKEREFVAAITWNGYITNYADSVKGRFTISRDNTKNTVFLQMNSLKPEETAVYYCAATTFSTTSPISRTYNYWGPGTQVTVSS
notes: Llama single domain antibody; also called 150(#15); VHCDR3 150(#15); not shown: tags: c-myc tag in periplasmic extract (ELISA, FACS); FLAG and His tags in purified VHH (SPR, infection assays)
B9: VHH 017 (3D03) (VHH)
VHH: QLQLVESGGGLVQPGGSLRLSCAASGFTLDDYTIGWFRQAPGKEREGVSCINSITSNTYYADSVKGRFTISRDNAKNTVYLQMNSLTAEDTAIYYCAADSGLFSGSSCLKYRAMRFGSWGQGTQVTVSS
notes: Llama single domain antibody; also called 29(#17); VHCDR3 29(#17); not shown: tags: c-myc tag in periplasmic extract (ELISA, FACS); FLAG and His tags in purified VHH (SPR, infection assays)
B10: VHH 018 (3E01) (VHH)
VHH: QVQLQESGGGLVQVGGSLRLSCVASGRAPSRYVMGWFRQAPGQEREFVAGIAWSGRAPYADSVKGRSTISRDNAKNTVYLQMNSLKPEDTGVYYCAGGEGAIRWTTLDAYDYWGQGTQVTVSS
notes: Llama single domain antibody; also called 49(#18); VHCDR3 49(#18); not shown: tags: c-myc tag in periplasmic extract (ELISA, FACS); FLAG and His tags in purified VHH (SPR, infection assays)
B11: VHH 019 (3E11) (VHH)
VHH: B10 VHH with G16S, A24T, A28T, G50A, A52S, S67F, R103K
notes: Llama single domain antibody; also called 47(#19); VHCDR3 47(#19); not shown: tags: c-myc tag in periplasmic extract (ELISA, FACS); FLAG and His tags in purified VHH (SPR, infection assays)
B12: VHH 020 (3H11) (VHH)
VHH: B10 VHH with A28T, S67F, T68V, N73S, P87S, R103L, L107P, D108G, D111N
notes: Llama single domain antibody; also called 48(#20); VHCDR3 48(#20); not shown: tags: c-myc tag in periplasmic extract (ELISA, FACS); FLAG and His tags in purified VHH (SPR, infection assays)

Molecular target: T1, native membrane bound porcine CD163 on primary porcine alveolar macrophages (porcine, UniProt Q2VL90 47-1115)
T1 construct: also called PAM CD163-WT; pPAM
T1 sequence: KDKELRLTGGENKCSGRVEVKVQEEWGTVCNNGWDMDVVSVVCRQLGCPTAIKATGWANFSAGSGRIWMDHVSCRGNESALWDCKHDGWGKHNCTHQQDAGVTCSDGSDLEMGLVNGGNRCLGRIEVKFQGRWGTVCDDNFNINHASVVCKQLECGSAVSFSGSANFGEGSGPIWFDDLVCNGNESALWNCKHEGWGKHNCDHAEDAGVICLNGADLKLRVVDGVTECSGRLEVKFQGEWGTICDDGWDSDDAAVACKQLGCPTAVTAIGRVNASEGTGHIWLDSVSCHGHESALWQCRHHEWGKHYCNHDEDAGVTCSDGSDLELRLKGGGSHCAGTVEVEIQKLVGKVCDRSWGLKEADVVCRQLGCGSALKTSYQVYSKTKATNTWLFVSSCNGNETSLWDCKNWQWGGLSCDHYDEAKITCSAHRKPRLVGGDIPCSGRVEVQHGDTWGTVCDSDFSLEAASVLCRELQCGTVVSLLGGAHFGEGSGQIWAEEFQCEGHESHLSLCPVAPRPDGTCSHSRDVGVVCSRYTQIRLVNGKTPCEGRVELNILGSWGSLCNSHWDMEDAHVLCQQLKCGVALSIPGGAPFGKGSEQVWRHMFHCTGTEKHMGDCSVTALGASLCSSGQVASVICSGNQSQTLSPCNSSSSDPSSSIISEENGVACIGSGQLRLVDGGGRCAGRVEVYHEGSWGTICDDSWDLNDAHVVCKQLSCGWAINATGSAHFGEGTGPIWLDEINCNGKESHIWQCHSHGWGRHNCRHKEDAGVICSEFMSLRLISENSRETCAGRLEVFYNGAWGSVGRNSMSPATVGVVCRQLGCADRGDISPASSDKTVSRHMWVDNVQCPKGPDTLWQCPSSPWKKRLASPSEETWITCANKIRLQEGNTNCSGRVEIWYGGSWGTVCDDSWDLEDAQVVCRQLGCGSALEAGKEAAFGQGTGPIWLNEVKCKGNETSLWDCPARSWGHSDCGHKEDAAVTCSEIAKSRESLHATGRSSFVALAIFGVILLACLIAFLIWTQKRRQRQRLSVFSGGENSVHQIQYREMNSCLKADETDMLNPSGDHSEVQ
Test: flow cytometry, PAM CD163-WT, 4C
Description: (§1) Periplasmic Extract (P.E) from the selected clones were incubated with anti-c-myc antibody (Roche; Cat. nr. 11667203001), specific to the c-myc tag present in the soluble VHH, for 30 minutes with agitation at room temperature (RT). The mix (P.E + anti-c-myc antibody) was added to the pPAM or pPAMΔ5 domain (cells with deletion of SRCR domain 5) and incubated for 60 min at 4° C. with gentle shaking.
(§2) Cells were washed 3x with 150 µl/well of FACS Buffer and incubated with 50 µl/well of the secondary antibody GAM-APC for 30 min at 4° C. and protected from the light, with shaking.

Row | Binder | % Binding [%] | MFI [MFI]
1 | B1 | 0.97 | 742
2 | B2 | 8.75 | 1390
3 | B3 | 74.1 | 4270
4 | B4 | 97.9 | 26500
5 | B5 | 31.8 | 1980
6 | B6 | 61 | 3210
7 | B7 | 38.8 | 2370
8 | B8 | 81.5 | 6220
9 | B9 | 95.3 | 13500
10 | B10 | 80.1 | 5210
11 | B11 | 93.8 | 12500
12 | B12 | 95.5 | 14000

Molecular target: T1, native membrane bound porcine CD163 on …
Test: flow cytometry, PAM CD163-WT, RT

Row | Binder | % Binding [%] | MFI [MFI]
13 | B1 | 0.69 | 722
14 | B2 | 0.56 | 843
15 | B3 | 3.32 | 983
16 | B4 | 91.5 | 17700
17 | B5 | 1.02 | 900
18 | B6 | 1.59 | 927
19 | B7 | 0.87 | 963
20 | B8 | 20.4 | 1660
21 | B9 | 37.2 | 2290
22 | B10 | 1.74 | 903
23 | B11 | 59.5 | 3940
24 | B12 | 81.5 | 9120

Molecular target: T2, porcine CD163 with deletion of SRCR domain 5 on porcine alveolar macrophages (porcine, UniProt Q2VL90 47-1115)
T2 construct: also called PAM CD163-d5; pPAMΔ5 domain
T2 sequence: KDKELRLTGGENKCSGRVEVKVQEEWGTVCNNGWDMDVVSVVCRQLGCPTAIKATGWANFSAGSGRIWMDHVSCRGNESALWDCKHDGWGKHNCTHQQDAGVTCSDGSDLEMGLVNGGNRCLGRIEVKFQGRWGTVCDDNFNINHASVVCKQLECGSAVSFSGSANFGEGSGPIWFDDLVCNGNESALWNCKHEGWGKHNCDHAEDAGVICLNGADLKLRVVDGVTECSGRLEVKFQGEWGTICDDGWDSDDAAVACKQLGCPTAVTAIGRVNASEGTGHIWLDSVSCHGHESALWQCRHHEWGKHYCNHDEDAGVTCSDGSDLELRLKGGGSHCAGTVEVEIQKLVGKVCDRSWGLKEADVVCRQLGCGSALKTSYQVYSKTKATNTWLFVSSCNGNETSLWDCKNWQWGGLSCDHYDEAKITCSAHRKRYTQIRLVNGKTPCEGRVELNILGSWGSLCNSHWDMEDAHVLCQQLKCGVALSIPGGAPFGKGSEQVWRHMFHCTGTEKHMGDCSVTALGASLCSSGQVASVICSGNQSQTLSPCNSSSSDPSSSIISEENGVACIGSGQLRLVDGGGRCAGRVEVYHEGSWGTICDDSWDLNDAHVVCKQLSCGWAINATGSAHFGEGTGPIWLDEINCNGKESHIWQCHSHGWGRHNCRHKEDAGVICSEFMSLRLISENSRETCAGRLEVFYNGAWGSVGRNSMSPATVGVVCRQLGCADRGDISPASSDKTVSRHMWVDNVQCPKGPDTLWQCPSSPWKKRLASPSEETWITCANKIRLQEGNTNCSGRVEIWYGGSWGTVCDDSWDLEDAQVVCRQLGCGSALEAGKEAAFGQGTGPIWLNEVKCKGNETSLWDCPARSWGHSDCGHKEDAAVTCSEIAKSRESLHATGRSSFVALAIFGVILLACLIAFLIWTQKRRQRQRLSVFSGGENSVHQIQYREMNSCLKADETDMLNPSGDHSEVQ
Test: flow cytometry on PAM with deletion of SRCR5
Description: as §1, §2

Row | Binder | binding result
25 | B1 | no binding
26 | B2 | no binding
27 | B3 | no binding
28 | B4 | no binding
29 | B5 | no binding
30 | B6 | no binding
31 | B7 | no binding
32 | B8 | no binding
33 | B9 | no binding
34 | B10 | no binding
35 | B11 | no binding
36 | B12 | no binding
